Test results as given in US20210301005A1 (Genentech, published 2021).
Read-outs that look alike come from different tables or passages of the source.

How the values were obtained:
[1] = molecular target: T1, human TGFβ3, mature dimeric form (human, UniProt P10600 301-412); experiment: cell-based or functional assay
T1 sequence: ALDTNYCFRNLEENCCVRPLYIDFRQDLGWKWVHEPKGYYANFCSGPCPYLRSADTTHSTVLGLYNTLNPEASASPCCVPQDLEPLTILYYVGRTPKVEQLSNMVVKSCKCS

[2] = molecular target: T2, human TGFβ2, mature receptor-binding domain (human, UniProt P09858 303-414 (pig entry), The mature TGFβ2 is a disulfide-linked homodimer of this 112-residue chain. The 4A11 epitope spans both monomers (p-1207).); experiment: cell-based or functional assay
T2 sequence: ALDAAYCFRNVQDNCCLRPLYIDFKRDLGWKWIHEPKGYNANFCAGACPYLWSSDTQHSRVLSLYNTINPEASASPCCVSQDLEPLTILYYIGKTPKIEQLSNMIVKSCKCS

[3] = molecular target: T3, human TGFβ1, mature receptor-binding domain (human, UniProt P01137 279-390); experiment: cell-based or functional assay
T3 sequence (P01137 279-390 limits assumed): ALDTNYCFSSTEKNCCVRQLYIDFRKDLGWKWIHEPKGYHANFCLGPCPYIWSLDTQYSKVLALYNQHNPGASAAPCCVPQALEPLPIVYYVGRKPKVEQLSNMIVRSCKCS

[4] = molecular target: T1, human TGFβ3, mature dimeric form; experiment: BIAcore T200
Protocol: (§1) For binding affinity determinations of all humanized 2A10 antibodies, Surface Plasmon Resonance (SPR) measurement with a BIAcore™-T200 instrument was used. Briefly, series S CM5 biosensor chip with protein A was first applied to capture each humanized 2A10 variant to achieve approximately 100 response units (RU) on each flow cell, following by injection of 3-fold serial dilutions of human TGFβ1, TGFβ2 or TGFβ3 (0.02 nM to 5 nM) in HBS-EP buffer (0.01M HEPES pH 7.4, 0.15M NaCl, 3 mM EDTA and 0.05% v/v surfactant P20) at 25° C. with a flow rate of 50 μl/min for kinetics measurement. Association rates (ko.) and dissociation rates (koff) were calculated using a simple one-to-one Langmuir binding model (BIAcore T200 evaluation software version 2.0) to determine the equilibrium dissociation constant (KD), which was calculated as the ratio koff/kₒₙ.

[5] = molecular target: T2, human TGFβ2, mature receptor-binding …; experiment: BIAcore T200
Protocol: as §1

[6] = molecular target: T1, human TGFβ3, mature dimeric form; experiment: cell-based or functional assay; remark: listed apart in the source
[7] = molecular target: T2, human TGFβ2, mature receptor-binding …; experiment: cell-based or functional assay; remark: listed apart in the source
[8] = molecular target: T3, human TGFβ1, mature receptor-binding …; experiment: cell-based or functional assay; remark: listed apart in the source
[9] = molecular target: T2, human TGFβ2, mature receptor-binding …; experiment: cell-based or functional assay; remark: listed apart in the source

Binder | HEKBlue TGFβ blocking IC50 [1] [nM] | HEKBlue TGFβ blocking IC50 [2] [nM] | HEKBlue TGFβ blocking IC50 [3] [nM] | Kd [4] [nM] | Kd [5] [nM] | HEKBlue TGFβ blocking IC50 [6] [nM] | HEKBlue TGFβ blocking IC50 [7] [nM] | HEKBlue TGFβ blocking IC50 [8] [nM] | fold drop in blocking against h6F12.v1 [9] [fold]
h2A10.v2.1 (antibody, human IgG1, kappa, N297G) heavy: not shown light: DIQMTQSPSSLSASVGDRVTITCRASQSVSISRFNLMHWYQHKPGKQPKLLIYRASNLASGIPSRFSGSGSGTDFTLTISSLQPEDFATYYCQHSRESPWTFGGGTKVEIKRTVAAPSVFIFPPSDEQLKSGTASVVCLLNNFYPREAKVQWKVDNALQSGNSQESVTEQDSKDSTYSLSSTLTLSKADYEKHKVYACEVTHQGLSSPVTKSFNRGEC | 0.01 | > 200 | > 200 | 0.0031 | 0.238 | – | – | – | –
h2A10.v2.9 (antibody, human IgG1, kappa, N297G, V domains shown) VH: EVQLLESGGGLVQPGGSLRLSCAASGFDFNSYGMSWVRQAPGKGLELVADIVSKTYNYTTYYSDSVKDRFTISRDDSKSTLYLQMNSLRAEDTAVYYCTVAPGGSFDYWGQGTLVTVSS VL: DIQLTQSPSSLSASVGDRVTITCRASQSVSISRFNLMHWYQHKPGKQPKLLIYRASNLASGIPSRFSGSGSGTDFTLTISSLQPEDFATYYCQHSRESPWTFGGGTKVEIKR | 0.01 | > 200 | > 200 | 0.0007 | 0.768 | – | – | – | –
h2A10.v2.8 (antibody, human IgG1, kappa, N297G, V domains shown) VH: EVQLLESGGGLVQPGGSLRLSCAASGFDFNSYGMSWVRQAPGKGLELVADIVSKTYNYTTYYSDSVKDRFTISRDDSKNTVYLQMNSLRAEDTAVYYCTVAPGGSFDYWGQGTLVTVSS VL: DIQLTQSPSSLSASVGDRVTITCRASQSVSISRFNLMHWYQHKPGKQPKLLIYRASNLASGIPSRFSGSGSGTDFTLTISSLQPEDFATYYCQHSRESPWTFGGGTKVEIKR | 0.01 | > 200 | > 200 | 0.0012 | 0.365 | – | – | – | –
h2A10.v2.3 (antibody, human IgG1, kappa, N297G, V domains shown) VH: EVQLLESGGGLVQPGGSLRLSCAASGFDFNSYGMSWVRQAPGKGLELVADIVSKTYNYTTYYSDSVKDRFTISRDDSKSTVYLQMNSLRAEDTAVYYCTVAPGGSFDYWGQGTLVTVSS VL: DIQLTQSPSSLSASVGDRVTITCRASQSVSISRFNLMHWYQHKPGKAPKLLIYRASNLASGIPSRFSGSGSGTDFTLTISSLQPEDFATYYCQHSRESPWTFGGGTKVEIKR | 0.01 | > 200 | > 200 | 0.0015 | 0.242 | – | – | – | –
h2A10.v2.6 (antibody, human IgG1, kappa, N297G, V domains shown) VH: EVQLLESGGGLVQPGGSLRLSCAASGFDFNSYGMSWVRQAPGKGLELVSDIVSKTYNYTTYYSDSVKDRFTISRDDSKSTVYLQMNSLRAEDTAVYYCTVAPGGSFDYWGQGTLVTVSS VL: DIQLTQSPSSLSASVGDRVTITCRASQSVSISRFNLMHWYQHKPGKQPKLLIYRASNLASGIPSRFSGSGSGTDFTLTISSLQPEDFATYYCQHSRESPWTFGGGTKVEIKR | 0.01 | > 200 | > 200 | 0.0015 | 0.249 | – | – | – | –
h2A10.v2.4 (antibody, human IgG1, kappa, N297G, V domains shown) VH: EVQLLESGGGLVQPGGSLRLSCAASGFDFNSYGMSWVRQAPGKGLELVADIVSKTYNYTTYYSDSVKDRFTISRDDSKSTVYLQMNSLRAEDTAVYYCTVAPGGSFDYWGQGTLVTVSS VL: DIQLTQSPSSLSASVGDRVTITCRASQSVSISRFNLMHWYQHKPGKQPKLLIYRASNLASGVPSRFSGSGSGTDFTLTISSLQPEDFATYYCQHSRESPWTFGGGTKVEIKR | 0.01 | > 200 | > 200 | 0.0021 | 0.19 | – | – | – | –
h2A10.v2.2 (antibody, human IgG1, kappa, N297G, V domains shown) VH: EVQLLESGGGLVQPGGSLRLSCAASGFDFNSYGMSWVRQAPGKGLELVADIVSKTYNYTTYYSDSVKDRFTISRDDSKSTVYLQMNSLRAEDTAVYYCTVAPGGSFDYWGQGTLVTVSS VL: DIQLTQSPSSLSASVGDRVTITCRASQSVSISRFNLMHWYQQKPGKQPKLLIYRASNLASGIPSRFSGSGSGTDFTLTISSLQPEDFATYYCQHSRESPWTFGGGTKVEIKR | 0.01 | > 200 | > 200 | 0.0012 | 0.124 | – | – | – | –
h6F12.v1.5 (antibody, human IgG1, kappa, N297G, V domains shown) VH: EVTLKESGPVLVKPTETLTLTCTVSGFSLTTYNVHWVRQPPGKALEWMGLIWNTGGTRYNSALKSRLTISKDTSKSQVVLTMTNMDPVDTATYYCARDPVPNKWHFDFWGPGTLVTVSS VL: DIQMTQSPSTLSASVGDRVTITCLASEDIYSNLAWYQQKPGKSPKLLIYDARSLQDGVPSRFSGSESGPEYTLTISSLQPDDFATYYCQQHHAYPFTFGQGTKVEIKR | – | – | – | – | – | > 200 | 0.04 | > 200 | 2
h6F12.v1.9 (antibody, V domains shown) VH: EVTLKESGPVLVKPTETLTLTCTVSGFSLTTYNVHWVRQPPGKALEWMGLIWNTGGTRYNSALKSRLTISKDTSKSQVVLTMTNMDPVDTATYYCARDPVPNKWHFDFWGRGTLVTVSS VL: DIQMTQSPSTLSASVGDRVTITCLASEDIYSNLAWYQQKPGKSPKLLIYDARSLQDGVPSRFSGSESGPEYTLTISSLQPDDFATYFCQQHHAYPFTFGQGTKVEIK | – | – | – | – | – | > 200 | 0.16 | > 200 | 5 to 8
h6F12.v1.8 (antibody, human IgG1, kappa, N297G, V domains shown) VH: EVTLKESGPVLVKPTETLTLTCTVSGFSLTTYNVHWVRQPPGKALEWMALIWNTGGTRYNSALKSRLTISKDTSKSQVVLTMTNMDPVDTATYYCARDPVPNKWHFDFWGPGTLVTVSS VL: DIQMTQSPSTLSASVGDRVTITCLASEDIYSNLAWYQQKPGKSPKLLIYDARSLQDGVPSRFSGSESGPEYTLTISSLQPDDFATYFCQQHHAYPFTFGQGTKVEIKR | – | – | – | – | – | > 200 | 0.08 | > 200 | 4
h6F12.v1.7 (antibody, human IgG1, kappa, N297G, V domains shown) VH: EVTLKESGPVLVKPTETLTLTCTVSGFSLTTYNVHWVRQPPGKALEWLGLIWNTGGTRYNSALKSRLTISKDTSKSQVVLTMTNMDPVDTATYYCARDPVPNKWHFDFWGPGTLVTVSS VL: DIQMTQSPSTLSASVGDRVTITCLASEDIYSNLAWYQQKPGKSPKLLIYDARSLQDGVPSRFSGSESGPEYTLTISSLQPDDFATYFCQQHHAYPFTFGQGTKVEIKR | – | – | – | – | – | > 200 | 0.03 | > 200 | –
h6F12.v1.6 (antibody, human IgG1, kappa, N297G, V domains shown) VH: EVTLKESGPVLVKPTETLTLTCTVSGFSLTTYNVHWIRQPPGKALEWMGLIWNTGGTRYNSALKSRLTISKDTSKSQVVLTMTNMDPVDTATYYCARDPVPNKWHFDFWGPGTLVTVSS VL: DIQMTQSPSTLSASVGDRVTITCLASEDIYSNLAWYQQKPGKSPKLLIYDARSLQDGVPSRFSGSESGPEYTLTISSLQPDDFATYFCQQHHAYPFTFGQGTKVEIKR | – | – | – | – | – | > 200 | 0.11 | > 200 | 5 to 8
